T1: TIAM2, Q8IVF5
T1 sequence (Q8IVF5 885-986, limits assumed, looked up): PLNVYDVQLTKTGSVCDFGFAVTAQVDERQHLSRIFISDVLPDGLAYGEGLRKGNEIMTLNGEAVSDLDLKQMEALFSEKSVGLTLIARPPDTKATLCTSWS

T2: LNX2_3, Q8N448
T2 sequence (Q8N448 463-564, limits assumed, looked up): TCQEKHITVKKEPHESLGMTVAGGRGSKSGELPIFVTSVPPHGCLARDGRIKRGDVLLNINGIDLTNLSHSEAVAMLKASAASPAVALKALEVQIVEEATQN

T3: RAPGEF6, Q8TEU7
T3 sequence (Q8TEU7 525-625, limits assumed, looked up): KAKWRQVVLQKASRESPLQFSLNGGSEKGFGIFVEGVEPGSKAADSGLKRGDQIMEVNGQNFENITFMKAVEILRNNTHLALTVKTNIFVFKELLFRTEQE

T4: SIPA1L2, Q9P2F8
T4 sequence (Q9P2F8 945-1036, limits assumed, looked up): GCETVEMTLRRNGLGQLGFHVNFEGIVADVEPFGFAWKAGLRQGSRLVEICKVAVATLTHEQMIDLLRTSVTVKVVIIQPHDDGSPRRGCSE

T5: MPP6, Q9NZW5
T5 sequence (Q9NZW5 125-219, limits assumed, looked up): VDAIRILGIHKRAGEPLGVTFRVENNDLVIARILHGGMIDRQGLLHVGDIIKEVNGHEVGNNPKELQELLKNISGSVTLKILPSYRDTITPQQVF

T6: GRIP1_3, Q9Y3R0
T6 sequence (Q9Y3R0 247-346, limits assumed, looked up): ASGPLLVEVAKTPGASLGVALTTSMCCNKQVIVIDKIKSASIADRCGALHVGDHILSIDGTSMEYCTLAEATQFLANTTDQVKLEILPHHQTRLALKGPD

T7: APBA2_2, Q99767
T7 sequence (Q99767 654-744, limits assumed, looked up): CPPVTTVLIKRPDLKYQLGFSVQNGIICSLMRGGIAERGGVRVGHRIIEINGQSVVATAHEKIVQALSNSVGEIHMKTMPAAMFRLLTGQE

T8: MPDZ_5, O75970
T8 sequence (O75970 695-796, limits assumed, looked up): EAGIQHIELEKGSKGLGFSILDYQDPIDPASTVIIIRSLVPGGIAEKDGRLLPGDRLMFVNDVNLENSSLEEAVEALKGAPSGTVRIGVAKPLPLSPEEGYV

T9: HTRA4, P83105
T9 sequence (P83105 378-476, limits assumed, looked up): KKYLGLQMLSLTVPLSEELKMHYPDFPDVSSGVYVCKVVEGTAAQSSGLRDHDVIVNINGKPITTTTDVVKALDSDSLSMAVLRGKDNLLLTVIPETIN

T10: SNTB1, Q13884
T10 sequence (Q13884 107-205, limits assumed, looked up): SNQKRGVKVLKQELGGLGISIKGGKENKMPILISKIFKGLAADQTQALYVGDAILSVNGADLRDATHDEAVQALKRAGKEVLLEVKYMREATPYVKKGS

T11: LRRC7, Q96NW7
T11 sequence (Q96NW7 1440-1537, limits assumed, looked up): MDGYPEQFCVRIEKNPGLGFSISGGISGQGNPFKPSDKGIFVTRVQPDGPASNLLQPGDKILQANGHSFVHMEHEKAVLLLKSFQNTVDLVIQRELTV

B1: PLEKHH2, Q8IVE3 (peptide)
chain: SRPTKGPTLL
B2: ADRB1, P08588 (peptide)
chain: RPGFASESKV

Key:
Experiment in all cases: holdup assay
Parameters in all cases: key: below the threshold = too weak to quantify, mostly under pKd 3.1 to 4
Details in all cases: plain residues with an end cap or a label only (N-terminal biotin on a linker: ado-ado)
TIAM2, Q8IVF5 = biological target: T1, TIAM2, Q8IVF5
LNX2_3, Q8N448 = biological target: T2, LNX2_3, Q8N448
RAPGEF6, Q8TEU7 = biological target: T3, RAPGEF6, Q8TEU7
HTRA1, Q92743 = biological target: HTRA1, Q92743
Chain of HTRA1, Q92743 (Q92743 360-477): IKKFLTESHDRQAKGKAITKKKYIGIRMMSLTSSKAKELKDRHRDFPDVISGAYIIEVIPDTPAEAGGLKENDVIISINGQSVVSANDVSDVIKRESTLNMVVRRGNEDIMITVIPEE

NHERF2_2, Q15599 = biological target: NHERF2_2, Q15599
Chain of NHERF2_2, Q15599 (Q15599 142-238): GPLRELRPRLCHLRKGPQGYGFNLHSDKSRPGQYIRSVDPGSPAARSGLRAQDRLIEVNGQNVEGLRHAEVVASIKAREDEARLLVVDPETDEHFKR

MAGI2_2, Q86UL8 = biological target: MAGI2_2, Q86UL8
Chain of MAGI2_2, Q86UL8 (Q86UL8 410-522): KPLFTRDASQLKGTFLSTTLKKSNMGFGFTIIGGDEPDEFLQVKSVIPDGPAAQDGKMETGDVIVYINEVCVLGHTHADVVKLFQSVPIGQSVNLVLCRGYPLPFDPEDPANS

FRMPD2_2, Q68DX3 = biological target: FRMPD2_2, Q68DX3
Chain of FRMPD2_2, Q68DX3 (Q68DX3 944-1038): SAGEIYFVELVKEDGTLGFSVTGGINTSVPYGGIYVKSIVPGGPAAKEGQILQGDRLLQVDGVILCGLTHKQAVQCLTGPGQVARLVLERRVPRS

DLG4_3, P78352 = biological target: DLG4_3, P78352
Chain of DLG4_3, P78352 (P78352 306-403): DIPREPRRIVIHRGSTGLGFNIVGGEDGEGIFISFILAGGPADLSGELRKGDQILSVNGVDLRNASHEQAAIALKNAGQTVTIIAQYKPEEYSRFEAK

IL16_1, Q14005 = biological target: IL16_1, Q14005
Chain of IL16_1, Q14005 (Q14005 210-306): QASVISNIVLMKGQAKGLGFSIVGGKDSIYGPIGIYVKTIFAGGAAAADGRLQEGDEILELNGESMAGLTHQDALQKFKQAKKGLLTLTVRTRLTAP

SIPA1L2, Q9P2F8 = biological target: T4, SIPA1L2, Q9P2F8
MAST1, Q9Y2H9 = biological target: MAST1, Q9Y2H9
Chain of MAST1, Q9Y2H9 (Q9Y2H9 962-1065): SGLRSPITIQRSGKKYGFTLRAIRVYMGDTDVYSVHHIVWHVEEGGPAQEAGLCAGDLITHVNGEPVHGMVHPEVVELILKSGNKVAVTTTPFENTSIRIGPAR

PICK1, Q9NRD5 = biological target: PICK1, Q9NRD5
Chain of PICK1, Q9NRD5 (Q9NRD5 17-115): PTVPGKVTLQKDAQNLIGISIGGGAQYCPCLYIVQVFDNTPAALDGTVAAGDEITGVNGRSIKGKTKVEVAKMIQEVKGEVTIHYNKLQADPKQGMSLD

PTPN3, P26045 = biological target: PTPN3, P26045
Chain of PTPN3, P26045 (P26045 505-587): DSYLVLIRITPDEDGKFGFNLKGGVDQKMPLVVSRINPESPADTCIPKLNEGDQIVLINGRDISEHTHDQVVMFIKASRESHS

MAGI2_3, Q86UL8 = biological target: MAGI2_3, Q86UL8
Chain of MAGI2_3, Q86UL8 (Q86UL8 600-682): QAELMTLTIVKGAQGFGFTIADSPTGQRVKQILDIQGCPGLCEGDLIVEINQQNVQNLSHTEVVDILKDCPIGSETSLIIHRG

MPP6, Q9NZW5 = biological target: T5, MPP6, Q9NZW5
GRIP1_3, Q9Y3R0 = biological target: T6, GRIP1_3, Q9Y3R0
APBA2_2, Q99767 = biological target: T7, APBA2_2, Q99767
LDB3, O75112 = biological target: LDB3, O75112
Chain of LDB3, O75112 (O75112 1-94): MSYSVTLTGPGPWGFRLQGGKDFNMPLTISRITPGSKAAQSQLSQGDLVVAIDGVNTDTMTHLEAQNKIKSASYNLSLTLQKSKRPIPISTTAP

GRIP2_5, Q9C0E4 = biological target: GRIP2_5, Q9C0E4
Chain of GRIP2_5, Q9C0E4 (Q9C0E4 544-642): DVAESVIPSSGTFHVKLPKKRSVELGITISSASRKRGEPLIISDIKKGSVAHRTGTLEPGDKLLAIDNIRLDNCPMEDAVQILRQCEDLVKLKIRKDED

DLG1_1, Q12959 = biological target: DLG1_1, Q12959
MPDZ_5, O75970 = biological target: T8, MPDZ_5, O75970
HTRA4, P83105 = biological target: T9, HTRA4, P83105
FRMPD2_1, Q68DX3 = biological target: FRMPD2_1, Q68DX3
Chain of FRMPD2_1, Q68DX3 (Q68DX3 770-861): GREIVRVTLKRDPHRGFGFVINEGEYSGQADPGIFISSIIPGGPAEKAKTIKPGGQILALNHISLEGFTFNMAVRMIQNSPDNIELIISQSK

PDLIM1, O00151 = biological target: PDLIM1, O00151
Chain of PDLIM1, O00151 (O00151 1-87): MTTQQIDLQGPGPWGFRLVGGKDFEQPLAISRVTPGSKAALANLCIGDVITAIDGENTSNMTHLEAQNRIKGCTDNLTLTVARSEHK

SNTB1, Q13884 = biological target: T10, SNTB1, Q13884
LRRC7, Q96NW7 = biological target: T11, LRRC7, Q96NW7
DLG4_1, P78352 = biological target: DLG4_1, P78352
Chain of DLG4_1, P78352 (P78352 62-152): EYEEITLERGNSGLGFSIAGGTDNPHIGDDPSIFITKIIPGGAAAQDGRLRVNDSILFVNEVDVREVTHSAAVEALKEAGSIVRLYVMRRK

Row | Binder | pKd (TIAM2, Q8IVF5) | pKd (LNX2_3, Q8N448) | pKd (RAPGEF6, Q8TEU7) | pKd (HTRA1, Q92743) | pKd (NHERF2_2, Q15599) | pKd (MAGI2_2, Q86UL8) | pKd (FRMPD2_2, Q68DX3) | pKd (DLG4_3, P78352) | pKd (IL16_1, Q14005) | pKd (SIPA1L2, Q9P2F8) | pKd (MAST1, Q9Y2H9) | pKd (PICK1, Q9NRD5) | pKd (PTPN3, P26045) | pKd (MAGI2_3, Q86UL8) | pKd (MPP6, Q9NZW5) | pKd (GRIP1_3, Q9Y3R0) | pKd (APBA2_2, Q99767) | pKd (LDB3, O75112) | pKd (GRIP2_5, Q9C0E4) | pKd (DLG1_1, Q12959) | also measured
1 | B1 | below the threshold | below the threshold | below the threshold | 4.16 | below the threshold | 4.2 | below the threshold | below the threshold | below the threshold | below the threshold | below the threshold | below the threshold | 4.02 | below the threshold | below the threshold | below the threshold | below the threshold | below the threshold | below the threshold | 3.72 | pKd (MPDZ_5, O75970): below the threshold; pKd (HTRA4, P83105): below the threshold; pKd (FRMPD2_1, Q68DX3): below the threshold; pKd (PDLIM1, O00151): below the threshold; pKd (SNTB1, Q13884): below the threshold; pKd (LRRC7, Q96NW7): below the threshold; pKd (DLG4_1, P78352): 3.91
2 | B2 | below the threshold | below the threshold | below the threshold | below the threshold | below the threshold | 4.6 | 3.5 | below the threshold | 4.36 | below the threshold | 3.66 | below the threshold | 4.32 | below the threshold | below the threshold | below the threshold | below the threshold | below the threshold | below the threshold | 3.71 | pKd (MPDZ_5, O75970): below the threshold; pKd (HTRA4, P83105): below the threshold; pKd (FRMPD2_1, Q68DX3): below the threshold; pKd (PDLIM1, O00151): below the threshold; pKd (SNTB1, Q13884): 4.35; pKd (LRRC7, Q96NW7): 3.59; pKd (DLG4_1, P78352): 4.03

Reference: article PMC9482650, “Quantitative fragmentomics allow affinity mapping of interactomes” (Nature Communications, 2022)
